# Measured values as given in patent publication US20030129688A1 (published 2003).
# Where a chain is given by its changes, count along the chain named. Ends that are not written are not given here.
# B1: HRG37 combination variant displayed on phage (ligand, not shown: large carriers; small tags and cut ends)
# chain: WELVPCGWDREGFCVNGGECFMVKDLSNPSRYLCKCPNEFTGDRCQNYVIAS-{(GGGS)3-M13 pIII C‑terminal fragment from residue 323}
# modifications: ends and bridges not checked
# notes: monovalent phage display, pHRG8-g3 background
# B2: HRG-β1 EGF variant I1 displayed on phage (ligand, human, not shown: large carriers)
# chain: SHLVKCAEKEKTFCVNGGECFMVKDLSNPSRYLCKCPNEFTGDRCQWYVIASGGGSGGGSGGGS
# notes: as for B1
# B3: HRG90 (HRG-β1 EGF Met226Ile) displayed on phage (ligand, human, not shown: large carriers)
# chain: B2 chain with W47N
# notes: monovalent phage display
# B4: HRG-β1 EGF variant E8 displayed on phage (ligand, not shown: large carriers; small tags and cut ends)
# chain: SHLVKCAEKEKTFCVNGGECFMVKDTKYRGCKCPNEFTGDRCQNYVMAS-{(GGGS)3-M13 pIII C‑terminal fragment from residue 323}
# modifications: ends and bridges not checked
# notes: monovalent phage display; library E carries the 202-204 deletion
# Experiments:
# [1] = molecular target: T1, ErbB-3 receptor-Ig fusion (human, UniProt P21860 20-643; P21860 20-636); test: 125I-HRG-β1 177-244 displacement, ErbB-3-Ig on plate
# [2] = molecular target: ErbB-4 receptor-Ig fusion (human, UniProt Q15303 26-651; Q15303 26-640); test: 125I-HRG-β1 177-244 displacement, ErbB-4-Ig on plate
# [3] = molecular target: T1, ErbB-3 receptor-Ig fusion; test: phage ELISA, competition with soluble ErbB-3-Ig; against HRG8
# Protocol: Microtiter plates (Nunc Maxisorp™ 96-well plates, Inter Med, Denmark) for phage ELISA were prepared as follows. The wells were precoated overnight with 0.5 μg of rabbit anti-human IgG (Fc gamma fragment-specific) antibodies (Jackson Immunoresearch, West Grove, Pa.) in 100 μL 50 mM NaCO₃ (pH 9.6). The wells were blocked for 30 minutes (min) with 200 μL PBS containing 0.1% bovine serum albumin (BSA) and rinsed with wash buffer (PBS containing 0.05% Tween 20™). The wells were then coated with 0.1 μg ErbB-2/3-Ig in binding buffer (PBS, 0.1% BSA, 0.05% Tween 20™) for 1 h, and washed again.
# Following incubation for 2 h at room temperature, plates were washed extensively and treated with a 1:900 dilution of anti-M13 horseradish peroxidase conjugate (Pharmacia, Piscataway, N.J.) for 20 min. The amount of phage binding was determined by assaying horseradish peroxidase activity using o-phenylenediamine dihydrochloride) substrate solution (Sigma Chemical Company, St. Louis, Mo.).
# T1 sequence (P21860 other isoform, or with tags, fused parts or gaps): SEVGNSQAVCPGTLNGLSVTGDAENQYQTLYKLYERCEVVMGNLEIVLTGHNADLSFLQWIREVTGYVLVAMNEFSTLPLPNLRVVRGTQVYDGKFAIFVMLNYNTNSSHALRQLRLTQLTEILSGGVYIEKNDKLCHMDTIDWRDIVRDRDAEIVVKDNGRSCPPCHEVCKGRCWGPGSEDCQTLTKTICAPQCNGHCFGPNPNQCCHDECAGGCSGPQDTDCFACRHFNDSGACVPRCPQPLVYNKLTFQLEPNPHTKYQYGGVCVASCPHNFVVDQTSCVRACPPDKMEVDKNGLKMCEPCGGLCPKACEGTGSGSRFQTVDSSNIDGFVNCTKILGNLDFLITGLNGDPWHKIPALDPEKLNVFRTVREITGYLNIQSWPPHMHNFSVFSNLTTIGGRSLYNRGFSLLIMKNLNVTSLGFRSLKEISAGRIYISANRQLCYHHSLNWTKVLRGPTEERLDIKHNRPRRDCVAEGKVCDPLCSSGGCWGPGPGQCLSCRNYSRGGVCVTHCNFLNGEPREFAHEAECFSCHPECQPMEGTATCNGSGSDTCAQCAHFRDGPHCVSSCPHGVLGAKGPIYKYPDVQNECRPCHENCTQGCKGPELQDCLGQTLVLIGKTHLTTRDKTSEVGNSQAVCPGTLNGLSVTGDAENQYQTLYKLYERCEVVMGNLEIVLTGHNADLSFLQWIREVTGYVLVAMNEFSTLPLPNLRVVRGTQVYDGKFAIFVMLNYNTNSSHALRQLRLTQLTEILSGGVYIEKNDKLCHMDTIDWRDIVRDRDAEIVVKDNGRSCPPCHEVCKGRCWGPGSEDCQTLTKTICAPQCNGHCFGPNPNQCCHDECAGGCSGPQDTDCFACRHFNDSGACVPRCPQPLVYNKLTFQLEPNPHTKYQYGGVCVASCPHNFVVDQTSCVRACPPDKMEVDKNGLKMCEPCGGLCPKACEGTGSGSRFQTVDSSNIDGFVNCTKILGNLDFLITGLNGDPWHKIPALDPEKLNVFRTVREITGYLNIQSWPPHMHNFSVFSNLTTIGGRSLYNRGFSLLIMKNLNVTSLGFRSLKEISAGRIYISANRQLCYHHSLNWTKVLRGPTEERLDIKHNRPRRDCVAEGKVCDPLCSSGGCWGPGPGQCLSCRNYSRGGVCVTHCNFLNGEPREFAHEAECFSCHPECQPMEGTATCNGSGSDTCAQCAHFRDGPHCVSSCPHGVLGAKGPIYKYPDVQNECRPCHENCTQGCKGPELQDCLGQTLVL
# Chain of ErbB-4 receptor-Ig fusion (Q15303 other isoform, or with tags, fused parts or gaps): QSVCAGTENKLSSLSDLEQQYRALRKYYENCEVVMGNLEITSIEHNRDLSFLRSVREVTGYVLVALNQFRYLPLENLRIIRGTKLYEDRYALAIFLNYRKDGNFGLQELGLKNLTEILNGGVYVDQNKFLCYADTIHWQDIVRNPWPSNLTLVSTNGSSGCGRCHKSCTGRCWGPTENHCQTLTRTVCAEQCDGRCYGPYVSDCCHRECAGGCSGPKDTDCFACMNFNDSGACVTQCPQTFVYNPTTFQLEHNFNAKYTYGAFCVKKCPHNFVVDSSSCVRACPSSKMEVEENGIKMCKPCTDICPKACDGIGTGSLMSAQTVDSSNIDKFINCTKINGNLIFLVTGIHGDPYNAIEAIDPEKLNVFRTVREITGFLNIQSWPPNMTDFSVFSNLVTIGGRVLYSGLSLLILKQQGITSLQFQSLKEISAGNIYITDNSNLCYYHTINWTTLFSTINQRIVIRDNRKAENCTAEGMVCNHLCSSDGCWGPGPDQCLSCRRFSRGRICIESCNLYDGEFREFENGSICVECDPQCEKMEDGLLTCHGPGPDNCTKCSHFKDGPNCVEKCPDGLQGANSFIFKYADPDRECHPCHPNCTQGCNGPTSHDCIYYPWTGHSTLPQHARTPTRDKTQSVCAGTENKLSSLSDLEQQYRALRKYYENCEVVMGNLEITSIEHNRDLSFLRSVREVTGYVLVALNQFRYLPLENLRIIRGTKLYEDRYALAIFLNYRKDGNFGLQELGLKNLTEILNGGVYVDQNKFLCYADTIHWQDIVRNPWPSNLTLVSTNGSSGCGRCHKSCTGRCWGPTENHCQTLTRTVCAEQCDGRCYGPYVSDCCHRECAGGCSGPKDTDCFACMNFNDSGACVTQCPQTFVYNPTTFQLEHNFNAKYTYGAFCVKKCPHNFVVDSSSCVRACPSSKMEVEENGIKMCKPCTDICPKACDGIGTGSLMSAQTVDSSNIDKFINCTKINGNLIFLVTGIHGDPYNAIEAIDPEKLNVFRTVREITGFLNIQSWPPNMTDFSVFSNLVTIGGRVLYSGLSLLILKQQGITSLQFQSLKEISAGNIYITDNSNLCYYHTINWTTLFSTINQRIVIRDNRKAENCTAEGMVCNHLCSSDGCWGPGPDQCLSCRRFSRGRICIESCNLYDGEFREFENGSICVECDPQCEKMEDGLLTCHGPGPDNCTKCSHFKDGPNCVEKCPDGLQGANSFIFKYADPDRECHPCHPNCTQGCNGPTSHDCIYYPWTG
Molecule,EC50 [1] [nM],EC50 [2] [nM],EC50 (wt)/EC50 (mut) [3] [ratio]
Trx-HRG-β1 146-244 L179A fusion (from UniProt Q02297 146-244) (ligand),394,51.7,–
Trx-HRG-β1 146-244 S177A fusion (from UniProt Q02297 146-244) (ligand),129,54.6,–
Trx-HRG-β1 146-244 G193A fusion (from UniProt Q02297 146-244) (ligand),26.9,76.3,–
Trx-HRG-β1 146-244 R207A fusion (from UniProt Q02297 146-244) (ligand),245,24.3,–
Trx-HRG-β1 146-244 H178A fusion (from UniProt Q02297 146-244) (ligand),476,138,–
Trx-HRG-β1 146-244 K211A fusion (from UniProt Q02297 146-244) (ligand),248,124,–
Trx-HRG-β1 146-244 Y224A fusion (from UniProt Q02297 146-244) (ligand),339,24.5,–
Trx-HRG-β1 146-244 E195A fusion (from UniProt Q02297 146-244) (ligand),42,13.2,–
Trx-HRG-β1 146-244 F229A fusion (from UniProt Q02297 146-244) (ligand),177,89.9,–
Trx-HRG-β1 146-244 F189A fusion (from UniProt Q02297 146-244) (ligand),975,565,–
Trx-HRG-β1 146-244 G218A fusion (from UniProt Q02297 146-244) (ligand),668,608,–
Trx-HRG-β1 146-244 N192A fusion (from UniProt Q02297 146-244) (ligand),1640,696,–
Trx-HRG-β1 146-244 G194A fusion (from UniProt Q02297 146-244) (ligand),1210,275,–
Trx-HRG-β1 146-244 T217A fusion (from UniProt Q02297 146-244) (ligand),145,32.7,–
Trx-HRG-β1 146-244 V199A fusion (from UniProt Q02297 146-244) (ligand),–,246,–
Trx-HRG-β1 146-244 E215A fusion (from UniProt Q02297 146-244) (ligand),156,104,–
Trx-HRG-β1 146-244 F216A fusion (from UniProt Q02297 146-244) (ligand),2550,173,–
Trx-HRG-β1 146-244 P205A fusion (from UniProt Q02297 146-244) (ligand),39.5,34.2,–
Trx-HRG-β1 146-244 K200A fusion (from UniProt Q02297 146-244) (ligand),45.4,16.9,–
B1,–,–,13
B2,–,–,13
B3,–,–,6.3
B4,–,–,17
